± gives the standard deviation of the averaged measurements.
Key:
Saccharomyces cerevisiae [1] = test: protein stability index of tFT-peptide fusion (C-terminal peptide) (PSI (0-1 scale)); higher = more stable (slower turnover); conditions: genetic background: wild type; temperature: 30 C
Saccharomyces cerevisiae [2] = test: as above
Procedure: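 MPS profiling in S. cerevisiae of the tFT-X12 degron library: putative degron peptides plus stable controls, 12 aa, fused to the C-terminus of a sfGFP-mCherry timer. Cells are FACS-sorted into 8 mCherry/sfGFP bins and deep-sequenced. PSI runs from 0 (unstable) to 1 (stable). Backgrounds are wild type, das1Δ and doa10Δ at 30 °C, and wild type, das1Δ, cdc34-1 and cdc53-1 at 37 °C; 2-3 technical replicates each.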

[3] = genetic background: cdc34-1, temperature: 37 C
[4] = genetic background: cdc53-1, temperature: 37 C
[5] = genetic background: das1 deletion, temperature: 30 C
[6] = genetic background: das1 deletion, temperature: 37 C
[7] = genetic background: doa10 deletion, temperature: 30 C
[8] = genetic background: wild type, temperature: 30 C
[9] = genetic background: wild type, temperature: 37 C
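Note: PSI is a weighted mean of sequencing reads over stability bins, variants kept only with over 10 reads, mCherry proximal and sfGFP distal, peptide attached via GGGS linker.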

Row | Sequence | protein stability index (Saccharomyces cerevisiae [1]) | protein stability index (Saccharomyces cerevisiae [2]; [3]) | protein stability index (Saccharomyces cerevisiae [2]; [4]) | protein stability index (Saccharomyces cerevisiae [2]; [5]) | protein stability index (Saccharomyces cerevisiae [2]; [6]) | protein stability index (Saccharomyces cerevisiae [2]; [7]) | protein stability index (Saccharomyces cerevisiae [2]; [8]) | protein stability index (Saccharomyces cerevisiae [2]; [9])
1 | CVFAYSPVALRC | 0.488 ± 0.01 | 0.543 ± 0.025 | 0.534 ± 0.014 | 0.409 ± 0.024 | 0.556 ± 0.0084 | 0.412 ± 0.016 | 0.403 ± 0.018 | 0.532 ± 0.018
2 | VFFFNALFCFFC | 0.35 ± 0.0075 | 0.523 ± 0.039 | 0.51 ± 0.0085 | 0.535 ± 0.02 | 0.562 ± 0.0091 | 0.31138 ± 0.00022 | 0.291 ± 0.011 | 0.356 ± 0.0075
3 | LRFYLLTPPSPA | 0.54 ± 0.061 | 0.59 ± 0.022 | 0.6288 ± 0.0054 | 0.481 ± 0.024 | 0.631 ± 0.0089 | 0.469 ± 0.017 | 0.494 ± 0.02 | 0.586 ± 0.029
4 | GVLIFLSFQPIA | 0.431 ± 0.037 | 0.539 ± 0.021 | 0.617 ± 0.023 | 0.429 ± 0.03 | 0.599 ± 0.0088 | 0.3783 ± 0.0017 | 0.414 ± 0.013 | 0.556 ± 0.0093
5 | LSPPLRHRLTPP | 0.715 ± 0.047 | 0.675 ± 0.014 | 0.729 ± 0.022 | 0.687 ± 0.032 | 0.712 ± 0.029 | 0.67109 ± 0.00013 | 0.669 ± 0.015 | 0.6731 ± 0.0065
6 | LRVVVGLCMCVL | 0.453 ± 0.015 | 0.4743 ± 0.00078 | 0.503 ± 0.007 | 0.396 ± 0.024 | 0.516 ± 0.0088 | 0.385 ± 0.014 | 0.395 ± 0.019 | 0.4884 ± 0.0035
7 | LFNRCCTILVVW | 0.299 ± 0.016 | 0.189 ± 0.025 | 0.22 ± 0.026 | 0.198 ± 0.02 | 0.343 ± 0.01 | 0.181 ± 0.0051 | 0.2 ± 0.029 | 0.316 ± 0.021
8 | NCVDRFKGQKRM | 0.505 ± 0.031 | 0.655 ± 0.055 | 0.723 ± 0.029 | 0.64 ± 0.027 | 0.711 ± 0.0013 | 0.422 ± 0.021 | 0.491 ± 0.023 | 0.6341 ± 0.0052
9 | ILRAGITYVYAV | 0.399 ± 0.04 | 0.515 ± 0.014 | 0.544 ± 0.036 | 0.325 ± 0.038 | 0.5463 ± 0.0033 | 0.264 ± 0.0082 | 0.296 ± 0.016 | 0.493 ± 0.013
10 | CFVSFLHLLYFS | 0.362 ± 0.015 | 0.347 ± 0.044 | 0.341 ± 0.025 | 0.35 ± 0.025 | 0.4666 ± 8.3e-05 | 0.506 ± 0.0063 | 0.296 ± 0.024 | 0.425 ± 0.0054
11 | ESCIFLMWLTVL | 0.136 ± 0.0054 | 0.177 ± 0.013 | 0.273 ± 0.024 | 0.222 ± 0.032 | 0.379 ± 0.0044 | 0.0814 ± 0.021 | 0.0868 ± 0.012 | 0.0936 ± 0.013
12 | RNTLLFKRILHI | 0.165 ± 0.059 | 0.671 ± 0.028 | 0.706 ± 0.017 | 0.637 ± 0.032 | 0.77 ± 0.018 | 0.0865 ± 0.024 | 0.108 ± 0.045 | 0.154 ± 0.0032
13 | PALPQPMNPAPP | 0.725 ± 0.032 | 0.656 ± 0.043 | 0.722 ± 0.0094 | 0.657 ± 0.014 | 0.727 ± 0.015 | 0.667 ± 0.022 | 0.66 ± 0.016 | 0.6734 ± 0.0059
14 | SLRSRSLRCRLS | 0.38 ± 0.005 | 0.619 ± 0.056 | 0.755 ± 0.024 | 0.723 ± 0.0081 | 0.749 ± 0.031 | 0.288 ± 0.0071 | 0.297 ± 0.0095 | 0.489 ± 0.031
15 | YVSLPFVVWWFC | 0.309 ± 0.033 | 0.443 ± 0.029 | 0.533 ± 0.016 | 0.414 ± 0.026 | 0.591 ± 0.0081 | 0.1839 ± 0.0011 | 0.198 ± 0.014 | 0.375 ± 0.0063
16 | QPTGYFKLIIIK | 0.3976 ± 0.0014 | 0.317 ± 0.029 | 0.393 ± 0.072 | 0.3 ± 0.044 | 0.473 ± 0.047 | 0.38 ± 0.0083 | 0.323 ± 0.067 | 0.4476 ± 0.0013
17 | RLPSSNVRYWVS | 0.235 ± 0.035 | 0.637 ± 0.037 | 0.729 ± 0.012 | 0.64 ± 0.012 | 0.751 ± 0.032 | 0.1599 ± 0.001 | 0.183 ± 0.012 | 0.394 ± 0.037
18 | SGRFRFVLLGLV | 0.203 ± 0.021 | 0.558 ± 0.032 | 0.601 ± 0.008 | 0.455 ± 0.03 | 0.632 ± 0.00071 | 0.122 ± 0.023 | 0.156 ± 0.023 | 0.253 ± 0.0054
19 | FLGPMRVLVSSV | 0.522 ± 0.073 | 0.568 ± 0.03 | 0.606 ± 0.032 | 0.424 ± 0.03 | 0.6003 ± 0.0019 | 0.401 ± 0.015 | 0.425 ± 0.026 | 0.565 ± 0.0044
20 | SINKLLILIKSI | 0.13 ± 0.028 | 0.429 ± 0.026 | 0.618 ± 0.028 | 0.525 ± 0.03 | 0.629 ± 0.018 | 0.0798 ± 0.019 | 0.0738 ± 0.0087 | 0.112 ± 0.069

Row | Sequence | protein stability index (Saccharomyces cerevisiae [1]) | protein stability index (Saccharomyces cerevisiae [2]; [3]) | protein stability index (Saccharomyces cerevisiae [2]; [4]) | protein stability index (Saccharomyces cerevisiae [2]; [5]) | protein stability index (Saccharomyces cerevisiae [2]; [6]) | protein stability index (Saccharomyces cerevisiae [2]; [7]) | protein stability index (Saccharomyces cerevisiae [2]; [8]) | protein stability index (Saccharomyces cerevisiae [2]; [9])
21 | LLRFFPLLLFSF | 0.122 ± 0.083 | 0.135 ± 0.048 | 0.114 ± 0.01 | 0.213 ± 0.03 | 0.278 ± 0.02 | 0.181 ± 0.0067 | 0.116 ± 0.016 | 0.159 ± 0.013
22 | ACIFDMMWFWLF | 0.499 ± 0.032 | 0.692 ± 0.068 | 0.721 ± 0.008 | 0.577 ± 0.034 | 0.75 ± 0.0093 | 0.427 ± 0.02 | 0.46 ± 0.02 | 0.573 ± 0.006
23 | IACISCLLCVVV | 0.508 ± 0.015 | 0.608 ± 0.042 | 0.649 ± 0.038 | 0.479 ± 0.025 | 0.607 ± 0.017 | 0.479 ± 0.022 | 0.504 ± 0.0075 | 0.589 ± 0.0073
24 | RRIILAGLFLIS | 0.403 ± 0.0097 | 0.586 ± 0.028 | 0.613 ± 0.029 | 0.437 ± 0.033 | 0.623 ± 0.046 | 0.332 ± 0.021 | 0.353 ± 0.014 | 0.537 ± 0.0093
25 | CLHFLTWVRICS | 0.285 ± 0.041 | 0.2 ± 0.041 | 0.4701 ± 0.0029 | 0.409 ± 0.019 | 0.526 ± 0.011 | 0.0895 ± 0.0063 | 0.0814 ± 0.025 | 0.0804 ± 0.03
26 | GLLLRLRNLFCM | 0.522 ± 0.042 | 0.759 ± 0.087 | 0.8043 ± 0.0034 | 0.748 ± 0.019 | 0.851 ± 0.028 | 0.387 ± 0.026 | 0.391 ± 0.02 | 0.547 ± 0.05
27 | CFVLVVCIPVMV | 0.31 ± 0.035 | 0.2 ± 0.0041 | 0.247 ± 0.033 | 0.198 ± 0.023 | 0.3457 ± 0.0017 | 0.18 ± 0.009 | 0.207 ± 0.024 | 0.3279 ± 0.0019
28 | SIWVGSRFRWVV | 0.35 ± 0.062 | 0.642 ± 0.0088 | 0.7361 ± 0.0011 | 0.665 ± 0.034 | 0.7748 ± 0.0015 | 0.134 ± 0.017 | 0.134 ± 0.021 | 0.344 ± 0.052
29 | GLYFFVVRIFKV | 0.27 ± 0.059 | 0.219 ± 0.021 | 0.345 ± 0.075 | 0.221 ± 0.039 | 0.437 ± 0.013 | 0.167 ± 0.0056 | 0.184 ± 0.022 | 0.336 ± 0.0096
30 | LVAGFVFIFFYR | 0.372 ± 0.059 | 0.356 ± 0.053 | 0.488 ± 0.021 | 0.339 ± 0.033 | 0.49 ± 0.018 | 0.298 ± 0.0043 | 0.319 ± 0.022 | 0.46 ± 0.0078
31 | VVSLAVVGRFLV | 0.2243 ± 0.0017 | 0.616 ± 0.061 | 0.7 ± 0.011 | 0.586 ± 0.024 | 0.7 ± 0.031 | 0.118 ± 0.018 | 0.147 ± 0.018 | 0.263 ± 0.03
32 | LSFLLLLGCFGS | 0.466 ± 0.076 | 0.5966 ± 0.0035 | 0.6236 ± 0.0046 | 0.476 ± 0.019 | 0.59 ± 0.027 | 0.453 ± 0.017 | 0.462 ± 0.014 | 0.589 ± 0.018
33 | HLILWLFFVIVF | 0.304 ± 0.23 | 0.237 ± 0.012 | 0.193 ± 0.047 | 0.216 ± 0.024 | 0.333 ± 0.0038 | 0.237 ± 0.012 | 0.186 ± 0.012 | 0.271 ± 0.0074
34 | RILKLPGHVNDV | 0.7167 ± 0.005 | 0.6842 ± 0.0067 | 0.711 ± 0.031 | 0.654 ± 0.043 | 0.697 ± 0.026 | 0.652 ± 0.065 | 0.65 ± 0.027 | 0.69 ± 0.019
35 | ELNERRKRLVTN | 0.304 ± 0.011 | 0.623 ± 0.052 | 0.737 ± 0.01 | 0.6615 ± 0.0035 | 0.718 ± 0.0088 | 0.13 ± 0.021 | 0.142 ± 0.012 | 0.268 ± 0.033
36 | SRLMLPLSPLVC | 0.379 ± 0.045 | 0.41 ± 0.011 | 0.455 ± 0.0065 | 0.301 ± 0.045 | 0.5021 ± 0.0044 | 0.2762 ± 0.0016 | 0.313 ± 0.016 | 0.465 ± 0.0065
37 | VSFFCLICRVYP | 0.434 ± 0.099 | 0.371 ± 0.0078 | 0.4463 ± 0.0044 | 0.317 ± 0.033 | 0.4808 ± 0.0037 | 0.298 ± 0.008 | 0.313 ± 0.012 | 0.417 ± 0.039
38 | GRHRRIRYVKTS | 0.261 ± 0.087 | 0.633 ± 0.05 | 0.723 ± 0.0099 | 0.655 ± 0.014 | 0.744 ± 0.028 | 0.146 ± 0.024 | 0.183 ± 0.03 | 0.3527 ± 0.00097
39 | ACGAGFIILLGL | 0.535 ± 0.077 | 0.641 ± 0.086 | 0.613 ± 0.014 | 0.524 ± 0.022 | 0.65 ± 0.015 | 0.571 ± 0.033 | 0.522 ± 0.019 | 0.633 ± 0.008

From the supplement of paper PMC10724198
